Reference: publication doi:10.1101/2023.12.18.571367
“And” between values parts separate entries of the source, which are not always exact repeats. Equal values may be shown once.

Target: NRC4 (NLR required for cell death 4) with the mutations L9E and D478V
Assay: cryo-EM structure

Substance: NRC4 (NLR required for cell death 4) with the mutations L9E and D478V (natural protein)
- stoichiometry N: 6 and 12
